The term stoichiometry N denotes the number of molecules, sites or subunits per partner or assembly.

Series [1] deals with the molecule itself. Kind of series: molecular brightness from raster image correlation spectroscopy (RICS); live HEK293 cells, confocal, 37 °C, bottom membrane; clusters masked out by intensity thresholding; brightness of eGFP compared with eGFP5 and Lyn-eGFP references.
Series [2] has as its target GlyR-α3K-mCherry (glycine receptor α3 subunit, short splice variant K, N-terminally tagged with mCherry) (mouse). Kind of series: subunit counting by stepwise photobleaching (TIRF microscopy); fixed HEK293 cells with low copy number expression (50 ng GlyR-α3L-eGFP, 0-500 ng GlyR-α3K-mCherry); eGFP bleaching steps per diffraction-limited spot, step histogram fitted with binomial models; room temperature.

B1: GlyR-α3L-eGFP (glycine receptor α3 subunit, long splice variant L, N-terminally tagged with eGFP) (receptor, mouse, UniProt Q91XP5 34-464, looked up)
chain: ARSRSAPMSPSDFLDKLMGRTSGYDARIRPNFKGPPVNVTCNIFINSFGSIAETTMDYRVNIFLRQKWNDPRLAYSEYPDDSLDLDPSMLDSIWKPDLFFANEKGANFHEVTTDNKLLRIFKNGNVLYSIRLTLTLSCPMDLKNFPMDVQTCIMQLESFGYTMNDLIFEWQDEAPVQVAEGLTLPQFLLKEEKDLRYCTKHYNTGKFTCIEVRFHLERQMGYYLIQMYIPSLLIVILSWVSFWINMDAAPARVALGITTVLTMTTQSSGSRASLPKVSYVKAIDIWMAVCLLFVFSALLEYAAVNFVSRQHKELLRFRRKRKNKTEAFALEKFYRFSDTDDEVRESRFSFTAYGMGPCLQAKDGVVPKGPNHAVQVMPKSPDEMRKVFIDRAKKIDTISRACFPLAFLIFNIFYWVIYKILRHEDIHQQQD
notes: Glycine receptor subunit alpha-3, mouse, splice variant L (464 residues); The receptor assembles as a pentamer; the molecule here is the subunit; also called L variant; GlyR-α3L-FP; source: HEK293, transiently transfected (calcium phosphate; truncated CMV promoter), in the membrane of live or fixed cells; not shown: eGFP, N-terminal, kept
On to B1, for which the “stoichiometry N” value in series [1] amounted to 5. In series [2], the heteropentameric fraction (2nd order binomial fit) came out at 23%, the heteropentameric fraction (3rd order binomial fit) is 36% and the heteropentameric fraction (4th order binomial fit) was 67%.

The values are drawn from PMC9534812, “Hetero-pentamerization determines mobility and conductance of Glycine receptor α3 splice variants” (Cellular and Molecular Life Sciences, 2022).
